In US5558865, “HIV immunotherapeutics” (Nissin Shokuhin Kabushiki Kaisha, dated 1996):

T1: IIIB loop peptide Peptide 2 (HIV-1 strain IIIB)
T1 peptide: RIQRGPGR

T2: V3 loop peptide of HIV-1 isolate MN (HIV-1 isolate MN)
T2 peptide: RIHIGPGRAFYTTKN

T3: IIIB loop peptide Peptide 3 (HIV-1 strain IIIB)
T3 peptide: IQRGPGRA

T4: IIIB loop peptide Peptide 4 (HIV-1 strain IIIB)
T4 peptide: QRGPGRAF

T5: peptide of amino acids 322-336 of HIV-1MN gp120 (HIV-1 strain MN)
T5 peptide: YTTKNIIGTIRQAHC

T6: peptide of amino acids 312-326 of HIV-1MN gp120 (HIV-1 strain MN)
T6 peptide: RIHIGPGRAFYTTKN


Columns and labels:
[1] = target: recombinant HIV-1MN gp120 (Agmed, Inc.) (HIV-1 strain MN, UniProt P05877); assay: Western blot
native HIV-1MN gp120 [2] = target: T7, native HIV-1MN gp120 (HIV-1 strain MN, UniProt P05877); assay: Western blot
[3] = target: T1, IIIB loop peptide Peptide 2; assay: competition ELISA, 5 µg/ml antibody preincubated with 50 µg/ml peptide, on coated recombinant IIIB gp120
native HIV-1IIIB gp120 [4] = target: T8, native HIV-1IIIB gp120 (HIV-1 strain IIIB, UniProt P04578); assay: Western blot, colorimetric
[5] = target: recombinant HIV-1IIIB gp120 (DuPont-NEN) (HIV-1 strain IIIB, UniProt P04578); assay: Western blot, colorimetric
[6] = target: V3 loop peptide of HIV-1 isolate IIIB (HIV-1 isolate IIIB); assay: peptide ELISA
[7] = target: V3 loop peptide of HIV-1 isolate NY/5 (HIV-1 isolate NY/5); assay: peptide ELISA
[8] = target: V3 loop peptide of HIV-1 isolate CDC4 (HIV-1 isolate CDC4); assay: peptide ELISA
[9] = target: V3 loop peptide of HIV-1 isolate ELI (HIV-1 isolate ELI); assay: peptide ELISA
[10] = target: V3 loop peptide of HIV-1 isolate Z2 (HIV-1 isolate Z2); assay: peptide ELISA
[11] = target: V3 loop peptide of HIV-1 isolate Z6 (HIV-1 isolate Z6); assay: peptide ELISA
[12] = target: T2, V3 loop peptide of HIV-1 isolate MN; assay: peptide ELISA
[13] = target: T3, IIIB loop peptide Peptide 3; assay: competition ELISA, 5 µg/ml antibody preincubated with 50 µg/ml peptide, on coated recombinant IIIB gp120
[14] = target: T4, IIIB loop peptide Peptide 4; assay: as above
native HIV-1MN gp120 [15] = target: T7, native HIV-1MN gp120; assay: ELISA, hybridoma supernatant on membranes of MN-infected and uninfected H9 cells
[16] = target: T5, peptide of amino acids 322-336 of …; assay: peptide ELISA, 19.0 ng NM-01
[17] = target: T9, peptide of amino acids 302-316 of HIV-1MN gp120 (HIV-1 strain MN); assay: peptide ELISA, 19.0 ng NM-01
[18] = target: T6, peptide of amino acids 312-326 of …; assay: peptide ELISA, 19.0 ng NM-01
native HIV-1MN gp120 [19] = target: T7, native HIV-1MN gp120
[20] = target: T5, peptide of amino acids 322-336 of …; assay: peptide ELISA, 9.50 ng NM-01
[21] = target: T9, peptide of amino acids 302-316 of …; assay: peptide ELISA, 9.50 ng NM-01
[22] = target: T6, peptide of amino acids 312-326 of …; assay: peptide ELISA, 9.50 ng NM-01
[23] = target: T5, peptide of amino acids 322-336 of …; assay: peptide ELISA, 4.75 ng NM-01
[24] = target: T9, peptide of amino acids 302-316 of …; assay: peptide ELISA, 4.75 ng NM-01
[25] = target: T6, peptide of amino acids 312-326 of …; assay: peptide ELISA, 4.75 ng NM-01
[26] = target: T5, peptide of amino acids 322-336 of …; assay: peptide ELISA
[27] = target: V3 loop peptide of HIV-1 isolate RF (HIV-1 isolate RF); assay: peptide ELISA
[28] = target: T9, peptide of amino acids 302-316 of …; assay: peptide ELISA
native HIV-1IIIB gp120 [29] = target: T8, native HIV-1IIIB gp120; assay: immunofluorescence on slides of IIIB-infected H9 cells

Row | Binder | binding result [1] | binding result (native HIV-1MN gp120 [2]) | binding result (native HIV-1IIIB gp120 [4]) | binding result [5] | binding result [6] | binding result [7] | binding result [8] | binding result [9] | binding result [10] | binding result [11] | binding result [12] | binding result [14] | further results
1 | monoclonal antibody P4/D10 (antibody, V domains shown) VH: QIQLQQSGAELASPGASVTLSCKASGYTFTDHIMNWVKKRPGQGLEWIGRIFPVSGETNYNQKFMGKATFSVDRSSSTVSMVLNSLTSEDPAVYYCDLIYYDYEEDYYFDYWGQGTTLTV VL: DIVLTQSPASLAVSLGQRATISCRASESVDDYGISFMHWYQQKLGQPPKLLIYRASNLESGIPARFSGSGSGTEFTLTINPVETDDVATYYCQQSNKDPLTFGAGTKLELKR | no binding | no binding | binds | binds | binds | no binding | no binding | no binding | no binding | no binding | no binding |  | binding result [3]: binds
2 | monoclonal antibody F58/H3 (antibody, V domains shown) VH: QIQLQQSGAELASPGASVTLSCKASGYTFTDHIMNWVKKRPGQGLEWIGRIFPVSGETNYNQKFMGKATFSVDRSSSTVSMVLNSLTSEDPAVYYCDLIYYDYEEDYYFDYWGQGTTLTV VL: DIVLTQSPASLAVSLGQRATISCRASESVDDYGISFMHWYQQKLGQPPKLLIYRASNLESGIPARFSGSGSGTEFTLTINPVETDDVATYYCQQSNKDPLTFGAGTKLELKR | no binding | no binding | binds | binds | binds | no binding | no binding | no binding | no binding | no binding | no binding | binds | binding result [13]: binds
3 | monoclonal antibody NM-01 (antibody, V domains shown) VH: QIQLKESGPAVIKPSQSLSLTCIVSGFSITSSSYCWHWIRQPPGKGLEWMGRICYEGSIDYSPSIKSRSTISRDTSLNRFFIQLSSVTNEDTAMYYCSRENHGTTTSMDYWGQGTSVTVSS VL: DIVLTQSPASLAVSLGQRATISCRASESVDSYGNSFMHWYQQKPGQSPKLLIYVASNLESGVPARFSGSGSRTDFTLTIDPVEADDAATYYCQQNNEDPLTFGAGTKLELKR |  |  |  | binds | binds | binds | binds | no binding | no binding | no binding |  | binds | ELISA ratio, infected against uninfected cell membranes (Run 1) (native HIV-1MN gp120 [15]): 5.76 ratio; optical density at 650 nm [16]: 0.03 OD 650 nm; optical density at 650 nm [17]: 0.024 OD 650 nm; optical density at 650 nm [18]: 1.14 OD 650 nm; RIA ratio cpm inf/cpm uninf (native HIV-1MN gp120 [19]): 9.81 ratio; optical density at 650 nm [20]: 0.028 OD 650 nm; optical density at 650 nm [21]: 0.024 OD 650 nm; optical density at 650 nm [22]: 0.827 OD 650 nm; optical density at 650 nm [23]: 0.03 OD 650 nm; optical density at 650 nm [24]: 0.024 OD 650 nm; optical density at 650 nm [25]: 0.781 OD 650 nm; binding result [26]: no binding (tested: 19.0 ng); binding result [27]: binds; binding result [28]: no binding (tested: 19.0 ng); binding result (native HIV-1IIIB gp120 [29]): binds
